Experimental data published in article PMC7457537.

Experiments:
[1] = target: HIV-1 integrase with methionine preceding the N-terminal phenylalanine (IN MF), full-length (HIV-1 (NL4-3)); experiment: AUC; sedimentation velocity, 25 °C, 40,000 rpm, 20 mM HEPES-NaOH pH 7.5, 1 M NaCl, 7 mM CHAPS, 10 µM ZnOAc2, 10 µM β-mercaptoethanol; c(s) model in SEDFIT; self-association
[2] = target: HIV-1 integrase with methionine preceding the N-terminal phenylalanine (IN MF), full-length (HIV-1 (NL4-3)); experiment: AUC; sedimentation equilibrium, 4 °C, 20 mM HEPES-NaOH pH 7.5, 1 M NaCl, 7 mM CHAPS, 10 µM ZnOAc2, 10 µM β-mercaptoethanol; global fit at 16, 20, 24 krpm (SEDPHAT); dimer to monomers
[3] = target: HIV-1 integrase with methionine preceding the N-terminal phenylalanine (IN MF), full-length (HIV-1 (NL4-3)); experiment: SEC-MALS; Superdex 200 10/300, 25 °C, 20 mM HEPES-NaOH pH 7.5, 500 mM-1 M NaCl, 7 mM CHAPS, 10 µM ZnOAc2, 10 µM β-mercaptoethanol; eluted concentrations ~8-10 µM (IN 1F, IN MF); self-association
[4] = target: HIV-1 integrase with methionine preceding the N-terminal phenylalanine (IN MF), full-length (HIV-1 (NL4-3)); experiment: AUC; sedimentation equilibrium, 4 °C, same data and buffer as the monomer-dimer fit; attempted fit of a dimer-tetramer equilibrium: tetramer to dimers

Substance: HIV-1 integrase with methionine preceding the N-terminal phenylalanine (IN MF), full-length (enzyme)
- stoichiometry N [1]: 2
- Kd [2]: 127 µM
- stoichiometry N [3]: 2
- Kd [4]: > 1000 µM
